The labels stand for the following.
B3: YfiR (residues 35–190), co-expressed with YfiB (domain or fragment, P. aeruginosa, UniProt Q9I4L4 35-190, looked up)
chain: DDARTSIEQRSNAVSQVLLGIFSYVRWPKEPAVLQLCVVGPTEYADGLLRGMVQANGRRVHAERRAVDNPDLGTLCNVIYLGVVDERERQQVFRSLAGHPVLSISERGTECSVGSMFCLNVGGPRITFEANLDSIARSGVRVHPSVLKLARRQATP
notes: YfiR, P. aeruginosa, residues 35-190, lacking the signal peptide; ORF1 of pETDuet-1 with N-terminal His6 and a TEV cleavage site; Dimer in the 2:2 complex; only the Cys145-Cys152 disulfide is well formed there; not shown: His6, N-terminal, kept

Data set [1] deals with the molecule itself. Briefly: AUC; sedimentation velocity, 25°C, samples at OD280 of 0.7 in 20 mmol/L Tris pH 8.0, 200 mmol/L NaCl, 60,000 rpm; dimer to monomers.
Data set [2] concerns the target B3. Briefly: crystal structure; YfiB^L43P-YfiR complex, space group P1, 1.78 Å, 2:2 heterotetramer in the asymmetric unit; 0.2 mol/L ammonium sulfate, 0.1 mol/L Tris-HCl pH 8.0, 12% PEG 8000, 293 K. The settings on record: both partners purified.
Data set [3] concerns the molecule itself. The description is as above.
Data set [4] concerns the molecule itself. Briefly: crystal structure; VB6-bound (soaked, 2.4 Å) and Trp-bound (co-crystallised, 2.5 Å) YfiR, space group P4_3 2_1 2, a dimer in the asymmetric unit.

B1: YfiB (residues 34–168), wild type (domain or fragment)
chain: GLSAEQIAVLQEQGFELRDEGWEFGMSSKVLFGNNLDRLNPDSRNTLTKIARALLAVDIDKVRLEGHTDNYGDEGYNQKLSERRAESVAAVFREAGMPAANIEVRGLGMSKPVADNKTRAGRSENRRVAIIVPAE
notes: YfiB, P. aeruginosa, residues 34-168, lacking the signal peptide (residues 1-26) and periplasmic residues 27-33; ORF1 of pETDuet-1 with N-terminal His6 and a TEV cleavage site; no cleavage of the tag is told for YfiB; Monomer and dimer in solution (AUC); also called wild-type YfiB; apo YfiB
As for B1, the “stoichiometry N” value in data set [1] came out at 2.

B2: YfiB^L43P (residues 34–168), co-expressed with YfiR (domain or fragment)
chain: GLSAEQIAVPQEQGFELRDEGWEFGMSSKVLFGNNLDRLNPDSRNTLTKIARALLAVDIDKVRLEGHTDNYGDEGYNQKLSERRAESVAAVFREAGMPAANIEVRGLGMSKPVADNKTRAGRSENRRVAIIVPAE
notes: YfiB, P. aeruginosa, residues 34-168, with L43P; residues 44-168 are visible in the complex structure; Two copies in the 2:2 heterotetramer, separated from each other
Turning to B2, in data set [2], the “stoichiometry N” value was 1 YfiB per YfiR (printed as 2:2). Regarding B3, the binding result in data set [3] is “binds”.

B4: YfiR (residues 35–190), purified alone (domain or fragment, P. aeruginosa, UniProt Q9I4L4 35-190, looked up)
chain: DDARTSIEQRSNAVSQVLLGIFSYVRWPKEPAVLQLCVVGPTEYADGLLRGMVQANGRRVHAERRAVDNPDLGTLCNVIYLGVVDERERQQVFRSLAGHPVLSISERGTECSVGSMFCLNVGGPRITFEANLDSIARSGVRVHPSVLKLARRQATP
notes: YfiR, P. aeruginosa, residues 35-190, lacking the predicted N-terminal periplasmic localization signal peptide; also called native YfiR; not shown: His6, N-terminal, cleaved
As to B4, the binding result in data set [4] was “binds”.

Values taken from article PMC4887326, “Structural insights into the regulatory mechanism of the Pseudomonas aeruginosa YfiBNR system” (Protein & Cell, 2016).
